Results from article PMC8406262.
One block for each substance: values may come before it.

Tests used:
[1] = target: BonA, full-length soluble recombinant protein (mature, lacking its signal sequence) (Acinetobacter baumannii); test: AUC; sedimentation velocity, 0.25 to 2 mg/ml, 40,000 rpm, 20°C, 50 mM Tris-200 mM NaCl pH 7.9
[2] = target: BonA, full-length soluble recombinant protein (mature, lacking its signal sequence) (Acinetobacter baumannii); test: SEC-MALS; 100 μl at 1 to 5 mg/ml on Superdex 200 10/300 GL, 20 mM Tris-200 mM NaCl pH 7.9
[3] = target: BonA, endogenous in A. baumannii ATCC 19606 membranes (Acinetobacter baumannii ATCC 19606 (endogenous)); test: native gel or EMSA; 5 to 16% blue-native PAGE of 50 μg total membranes solubilized in detergent, Western blot with anti-BonA antiserum
[4] = target: BonA-C45, 45-aa C-terminally truncated BonA (Acinetobacter baumannii); test: SEC-MALS; 100 μl at 1 to 5 mg/ml on Superdex 200 10/300 GL, 20 mM Tris-200 mM NaCl pH 7.9

stoichiometry N [1]: 10
stoichiometry N [2]: 10
Substance: BonA, full-length soluble recombinant protein (mature, lacking its signal sequence) (natural protein)

stoichiometry N [3]: 2
Substance: BonA, endogenous in A. baumannii ATCC 19606 membranes (natural protein)

stoichiometry N [4]: 10
Substance: BonA-C45, 45-aa C-terminally truncated BonA (domain or fragment)
